For data set [1], the target named is FOXO3 (UniProt O43524 1-673). Description: fluorescence anisotropy. (In general: Fluorescence polarisation rises when a labelled molecule tumbles more slowly, as on binding a larger partner.)
In data set [2] the target is NF-κB RelA (p65) (UniProt Q04206 1-551). Description: fluorescence anisotropy.
NF-κB RelA (p65), sequence (Q04206 whole entry): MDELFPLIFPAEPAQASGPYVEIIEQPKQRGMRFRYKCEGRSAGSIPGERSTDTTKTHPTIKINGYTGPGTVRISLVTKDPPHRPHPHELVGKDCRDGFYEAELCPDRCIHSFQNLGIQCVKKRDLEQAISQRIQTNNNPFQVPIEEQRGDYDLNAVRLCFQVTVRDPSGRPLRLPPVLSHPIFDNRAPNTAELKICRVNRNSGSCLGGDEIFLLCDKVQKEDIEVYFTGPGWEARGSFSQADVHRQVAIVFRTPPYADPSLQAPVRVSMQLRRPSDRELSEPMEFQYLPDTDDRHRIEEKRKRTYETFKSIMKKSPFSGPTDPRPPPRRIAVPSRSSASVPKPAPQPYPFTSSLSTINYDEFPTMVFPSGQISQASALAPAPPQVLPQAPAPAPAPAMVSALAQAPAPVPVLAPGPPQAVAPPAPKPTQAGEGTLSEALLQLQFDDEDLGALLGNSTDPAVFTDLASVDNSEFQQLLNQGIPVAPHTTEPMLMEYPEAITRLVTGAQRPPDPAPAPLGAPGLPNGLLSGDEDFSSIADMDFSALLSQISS

FOXO3, sequence (O43524 whole entry): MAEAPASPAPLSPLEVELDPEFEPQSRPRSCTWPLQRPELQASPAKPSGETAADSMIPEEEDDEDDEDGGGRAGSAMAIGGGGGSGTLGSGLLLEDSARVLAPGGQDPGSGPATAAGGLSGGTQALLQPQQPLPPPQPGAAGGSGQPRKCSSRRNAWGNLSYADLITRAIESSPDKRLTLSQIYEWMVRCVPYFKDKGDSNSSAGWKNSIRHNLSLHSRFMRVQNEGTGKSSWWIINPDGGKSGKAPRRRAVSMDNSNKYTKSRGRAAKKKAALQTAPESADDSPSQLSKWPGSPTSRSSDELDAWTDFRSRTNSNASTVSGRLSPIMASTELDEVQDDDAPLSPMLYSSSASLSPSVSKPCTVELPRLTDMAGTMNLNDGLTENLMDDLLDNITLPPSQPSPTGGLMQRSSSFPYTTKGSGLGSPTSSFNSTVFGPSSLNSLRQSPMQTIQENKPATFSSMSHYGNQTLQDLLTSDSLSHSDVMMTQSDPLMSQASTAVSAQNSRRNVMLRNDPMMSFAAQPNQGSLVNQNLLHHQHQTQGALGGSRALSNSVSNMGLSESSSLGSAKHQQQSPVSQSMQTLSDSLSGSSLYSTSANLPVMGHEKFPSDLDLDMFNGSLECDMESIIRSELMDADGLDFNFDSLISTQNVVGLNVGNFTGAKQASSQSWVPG

B1: FOXO3 consensus duplex (dsDNA)
DNA 1: CGCATCCTATGTAAACAACTCGAGTC
DNA 2: GACTCGAGTTGTTTACATAGGATGCG
As to B1, the values for the binding result in data set [1] and in data set [2] were “binds” and “no binding”, respectively.

The record behind these values is paper PMC4670825.
